Reference: patent US20210395344A1 (TWIST BIOSCIENCE, published 2021)
Read-outs that look alike come from different tables or passages of the source.

Legend:
S1-Fc [1] = target: T1, S1-Fc (SARS-CoV-2, UniProt P0DTC2 16-685); experiment: phage ELISA
[2] = target: T2, COVID S1 RBM Fc fusion (Antigen 2) (SARS-CoV-2, UniProt P0DTC2 437-508); experiment: phage ELISA
T2 construct: domain: RBM

S1-Fc [3] = target: T1, S1-Fc; experiment: phage ELISA; remark: listed apart in the source
[4] = target: T2, COVID S1 RBM Fc fusion (Antigen 2); experiment: phage ELISA; remark: listed apart in the source
[5] = target: T3, SARS-CoV-2 S1 (antigen of the Carterra SPR kinetics) (SARS-CoV-2, UniProt P0DTC2 16-685); experiment: Carterra SPR
[6] = target: T3, SARS-CoV-2 S1 (antigen of the Carterra …); experiment: Carterra SPR; remark: listed apart in the source
[7] = target: T4, SARS-CoV-2 Spike Glycoprotein S1 (subunit 1) (SARS-CoV-2, UniProt P0DTC2 16-685); experiment: screening phage ELISA, mean
T4 construct: also called S1 Monomer; SARS-CoV-2 S1

[8] = target: T4, SARS-CoV-2 Spike Glycoprotein S1 …; experiment: screening phage ELISA, mean; remark: listed apart in the source

Binder | ELISA fold over background (S1-Fc [1]) | ELISA fold over background [2] | ELISA fold over background (S1-Fc [3]) | ELISA fold over background [4] | koff [5] | kon [5] | Kd [6] | koff [6] | kon [6] | ELISA (Avg) [7] | ELISA (Avg) [8]
1-2 (antibody, V domains shown, also called variant 1-2) VH: EVQLLESGGGLVQPGGSLRLSCAASGFTFSSQAMSWVRQAPGKGLEWVSAISGSGGGTYYADSVKGRFTISRDNSKNTLYLQMNSLRAEDTAVYYCAKDRRFGEFDPWGQGTLVTVSS VL: QSALTQPASVSGSPGQSITISCTGTSSGVGSYNLVSWYQQHPGKAPKLMIYEGIKRPSGVSNRFSGSKSGNTASLTISGLQAEDEADYYCCSYAGSSSFVVFGGGTKLTVL | 1.7 fold over background | 1.7 fold over background | 1.7 fold over background | 1.7 fold over background | 0.0272 s⁻¹ | 1580 M⁻¹ s⁻¹ | 17200 nM | 0.0272 s⁻¹ | 1580 M⁻¹ s⁻¹ | – | –
1-31 (antibody, V domains shown, also called variant 1-31) VH: EVQLLESGGGLVQPGGSLRLSCAASGFTFSSYAMNWVRQAPGKGLEWVSAISGSGGSTFYADSVKGRFTISRDNSKNTLYLQMNSLRAEDTAVYYCTRPPYGDYGDYWGQGTLVTVSS VL: QSALTQPASVSGSPGQSITISCTGTSSDVGKYNLVSWYQQHPGKAPKLMIYEGSQRPSGVSNRFSGSKSGNTASLTISGLQAEDEADYYCCSYAGSRTPVVFGGGTKLTVL | 15.7 fold over background | 1.2 fold over background | 15.7 fold over background | 1.2 fold over background | 0.000762 s⁻¹ | 20500 M⁻¹ s⁻¹ | 37.2 nM | 0.000762 s⁻¹ | 20500 M⁻¹ s⁻¹ | – | –
1-27 (antibody, V domains shown, also called variant 1-27) VH: EVQLLESGGGLVQPGGSLRLSCAASGFTFSSYAMTWVRQAPGKGLEWVSAISGSGGGTYYADSVKGRFTISRDNSKNTLYLQMNSLRAEDTAVYYCASSSSWQFDYWGQGTLVTVSS VL: QSALTQPASVSGSPGQSITISCTGTSSYVGHYNLVSWYQQHPGKAPKLMIYEGSRRPSGVSNRFSGSKSGNTASLTISGLQAEDEADYYCCSYAGSYTHYVFGGGTKLTVL | 1.3 fold over background | 1.6 fold over background | 1.3 fold over background | 1.6 fold over background | 0.00285 s⁻¹ | 227000 M⁻¹ s⁻¹ | 12.5 nM | 0.00285 s⁻¹ | 227000 M⁻¹ s⁻¹ | – | –
1-35 (antibody, V domains shown, also called variant 1-35) VH: EVQLLESGGGLVQPGGSLRLSCAASGFTFSNYAMSWVRQAPGKGLEWVSDISGSGGSTYYADSVKGRFTISRDNSKNTLYLQMNSLRAEDTAVYYCVKGTIPIFGVIRSAFDYWGQGTLVTVSS VL: QSALTQPASVSGSPGQSITISCTGTSSDVGSYSLVSWYQQHPGKAPKLMIYEGTKRPSGVSNRFSGSKSGNTASLTISGLQAEDEADYYCCSYAGSYSYVVFGGGTKLTVL | – | 1.6 fold over background | – | 1.6 fold over background | – | – | – | – | – | – | –
1-12 (antibody, V domains shown, also called variant 1-12) VH: EVQLLESGGGLVQPGGSLRLSCAASGITFSSYAMSWVRQAPGKGLEWVSGISGSGGSTYYADSVKGRFTISRDNSKNTLYLQMNSLRAEDTAVYYCAKHGSGTIFGVVIAKYYFDYWGQGTLVTVSS VL: QSALTQPASVSGSPGQSITISCTGTSSDVGHYNLVSWYQQHPGKAPKLMIYEGTKRPSGVSNRFSGSKSGNTASLTISGLQAEDEADYYCCSYAGSSSFVVFGGGTKLTVL | – | – | – | – | – | – | 372 nM | – | – | – | –
1-20 (antibody, V domains shown, also called variant 1-20) VH: EVQLLESGGGLVQPGGSLRLSCAASGITFSSYAMSWVRQAPGKGLEWVSGISGSGGSTYYADSVKGRFTISRDNSKNTLYLQMNSLRAEDTAVYYCANHGSGTIFGVVIAKYYFDYWGQGTLVTVSS VL: QSALTQPASVSGSPGQSITISCTGTSSDVGHYNLVSWYQQHPGKAPKLMIYEGTKRPSGVSNRFSGSKSGNTASLTISGLQAEDEADYYCCSYAGSSSFVVFGGGTKLTVL | – | 0.8 fold over background | – | 0.8 fold over background | – | – | – | – | – | – | –
1-30 (antibody, V domains shown, also called variant 1-30) VH: EVQLLESGGGLVQPGGSLRLSCAASGFTFSSYAMTWVRQAPGKGLEWVSAISGSGGSTFYADSVKGRFTISRDNSKNTLYLQMNSLRAEDTAVYYCTRPPYGDYGDYWGQGTLVTVSS VL: QSALTQPASVSGSPGQSITISCTGTSRDVGSYNLVSWYQQHPGKAPKLMIYEGTKRPSGVSNRFSGSKSGNTASLTISGLQAEDEADYYCCSYAGSRTPVVFGGGTKLTVL | 5.6 fold over background | 1.4 fold over background | 5.6 fold over background | 1.4 fold over background | 0.00164 s⁻¹ | 43900 M⁻¹ s⁻¹ | 37.2 nM | 0.00164 s⁻¹ | 43900 M⁻¹ s⁻¹ | – | –
1-4 (antibody, V domains shown, also called variant 1-4) VH: EVQLLESGGGLVQPGGSLRLSCAASGFTFSSQAMSWVRQAPGKGLEWVSAISGSGGGTYYADSVKGRFTISRDNSKNTLYLQMNSLRAEDTAVYYCAKDRRFGEFDPWGQGTLVTVSS VL: QSALTQPASVSGSPGQSITISCTGTSSDVGTYNLVSWYQQHPGKAPKLMIYEGSQRPSGVSNRFSGSKSGNTASLTISGLQAEDEADYYCCSYAGSSSFVVFGGGTKLTVL | 0.9 fold over background | 1.1 fold over background | 0.9 fold over background | 1.1 fold over background | 0.124 s⁻¹ | 42000 M⁻¹ s⁻¹ | 2950 nM | 0.124 s⁻¹ | 42000 M⁻¹ s⁻¹ | – | –
1-3 (antibody, V domains shown, also called variant 1-3) VH: EVQLLESGGGLVQPGGSLRLSCAASGFTFSSQAMSWVRQAPGKGLEWVSAISGSGGGTYYADSVKGRFTISRDNSKNTLYLQMNSLRAEDTAVYYCAKDRRFGEFDPWGQGTLVTVSS VL: QSALTQPASVSGSPGQSITISCTGISSDVGSYNLVSWYQQHPGKAPKLMIYEGTKRPSGVSNRFSGSKSGNTASLTISGLQAEDEADYYCCSYAGSSSFVVFGGGTKLTVL | 1.5 fold over background | 1.5 fold over background | 1.5 fold over background | 1.5 fold over background | 0.304 s⁻¹ | 1.42e+06 M⁻¹ s⁻¹ | 215 nM | 0.304 s⁻¹ | 1.42e+06 M⁻¹ s⁻¹ | – | –
1-28 (antibody, V domains shown, also called variant 1-28) VH: EVQLLESGGGLVQPGGSLRLSCAASGFTFSSYGMSWVRQAPGKGLEWVSAISGSGGGTYYADSVKGRFTISRDNSKNTLYLQMNSLRAEDTAVYYCASSSSWQFDYWGQGTLVTVSS VL: QSALTQPASVSGSPGQSITISCTGTSSGVGSYNLVSWYQQHPGKAPKLMIYEGSQRPSGVSNRFSGSKSGNTASLTISGLQAEDEADYYCCSYAGSSTHYVFGGGTKLTVL | 1.1 fold over background | 1.2 fold over background | 1.1 fold over background | 1.2 fold over background | 9.05 s⁻¹ | 1.23e+08 M⁻¹ s⁻¹ | 73.5 nM | 9.05 s⁻¹ | 1.23e+08 M⁻¹ s⁻¹ | – | –
1-5 (antibody, V domains shown, also called variant 1-5) VH: EVQLLESGGGLVQPGGSLRLSCAASGFTFSSQAMSWVRQAPGKGLEWVSAISGSGGGTYYADSVKGRFTISRDNSKNTLYLQMNSLRAEDTAVYYCAKDRRFGEFDPWGQGTLVTVSS VL: QSALTQPASVSGSPGQSITISCTGTSSGVGSYNLVSWYQQHPGKAPKLMIYEASKRPSGVSNRFSGSKSGNTASLTISGLQAEDEADYYCCSYAGSYTFAVFGGGTKLTVL | 1.2 fold over background | 1.4 fold over background | 1.2 fold over background | 1.4 fold over background | 0.054 s⁻¹ | 2150 M⁻¹ s⁻¹ | 25200 nM | 0.054 s⁻¹ | 2150 M⁻¹ s⁻¹ | – | –
1-29 (antibody, V domains shown, also called variant 1-29) VH: EVQLLESGGGLVQPGGSLRLSCAASGFTFSSYAMYWVRQAPGKGLEWVSAISGSAGSTYYADSVKGRFTISRDNSKNTLYLQMNSLRAEDTAVYYCARDTNDFWSGYSIFDPWGQGTLVTVSS VL: QSALTQPASVSGSPGQSITISCTGTSSDIGSYNLVSWYQQHPGKAPKLMIYEGTKRPSGVSNRFSGSKSGNTASLTISGLQAEDEADYYCCSYAGSRTYVFGGGTKLTVL | 1 fold over background | 0.9 fold over background | 1 fold over background | 0.9 fold over background | 0.00197 s⁻¹ | 535 M⁻¹ s⁻¹ | 3680 nM | 0.00197 s⁻¹ | 535 M⁻¹ s⁻¹ | – | –
1-49 (antibody, V domains shown, also called variant 1-49) VH: EVQLLESGGGLVQPGGSLRLSCAASGFTFSSYAMYWVRQAPGKGLEWVSAISGSAGSTYYADSVKGRFTISRDNSKNTLYLQMNSLRAEDTAVYYCARDTNDFWGQGTLVTVSS VL: QSALTQPASVSGSPGQSITISCTGTSSDIGSYNLVSWYQQHPGKAPKLMIYEGTKRPSGVSNRFSGSKSGNTASLTISGLQAEDEADYYCCSYAGSRTYVFGGGTKLTVL | – | 0.8 fold over background | – | 0.8 fold over background | – | – | – | – | – | – | –
1-48 (antibody, V domains shown, also called variant 1-48) VH: EVQLLESGGGLVQPGGSLRLSCAASGFTFSSHAMYWVRQAPGKGLEWVSAISGSAGSTYYADSVKGRFTISRDNSKNTLYLQMNSLRAEDTAVYYCAHDTKDFWSGYCIFDPWGQGTLVTVSS VL: QSALTQPASVSGSPGQSITISCTGTSSDIGSYNLVSWYQQHPGKAPKLMIYEGTKRPSGVSNRFSGSKSGNTASLTISGLQAEDEADYYCCSYAGSRTYVFGGGTKLTVL | – | 0.8 fold over background | – | 0.8 fold over background | – | – | – | – | – | – | –
1-23 (antibody, V domains shown) VH: EVQLLESGGGLVQPGGSLRLSCAASGFTFSSYAISWVRQAPGKGLEWVSIISGSGGSTYYADSVKGRFTISRDNSKNTLYLQMNSLRAEDTAVYYCAREGYRDYLWYFDLWGQGTLVTVSS VL: QSALTQPASVSGSPGQSITISCTGTSNDVGSYNLVSWYQQHPGKAPKLMIYEGNKRPSGVSNRFSGSKSGNTASLTISGLQAEDEADYYCCSYAGSYTVFGGGTKLTVL | – | – | – | – | – | – | – | – | – | 23.1 | 23.1
